Experiments:
Band-3 peptide = molecular target: T1, Band-3 peptide
T1 sequence (peptide): MEELQDDYEDDMEERR

ETE peptide = molecular target: T2, ETE peptide
T2 sequence (peptide): RRREEETEEE

[1] = molecular target: Heat-denatured ERK2 (Rattus norvegicus (Rat)) (UniProt P63086)
RR-SRC peptide = molecular target: T3, RR-SRC peptide
T3 sequence (peptide): RRLIEDAEYAARG

[2] = molecular target: Recombinant ERK2 expressed in E. coli (Rattus norvegicus (Rat)) (UniProt P63086)
S6 peptide = molecular target: T4, S6 peptide
T4 sequence (peptide): RRLSSLRA

Syntide-2 = molecular target: T5, Syntide-2
T5 sequence (peptide): PLARTLSVAGLPGKK

TEY peptide = molecular target: T6, TEY peptide
T6 sequence (peptide): PEHDHTGFLTEYVATRWYR

[3] = molecular target: bovine myelin basic protein (bovine) (UniProt P02687)
Sequence of bovine myelin basic protein (bovine) (P02687 whole entry): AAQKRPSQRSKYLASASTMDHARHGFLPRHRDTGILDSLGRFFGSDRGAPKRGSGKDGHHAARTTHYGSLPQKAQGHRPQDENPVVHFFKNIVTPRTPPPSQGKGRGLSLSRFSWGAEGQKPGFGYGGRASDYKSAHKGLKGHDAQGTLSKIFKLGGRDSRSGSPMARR

B1: MAPK activator 2 (MAPKK1b), 45 kDa polypeptide purified from EGF-stimulated A431 cells (enzyme)
chain: MPKKKPTPIQLNPAPDGSAVNGTSSAETNLEALQKKLEELELDEQQRKRLEAFLTQKQKVGELKDDDFEKISELGAGNGGVVFKVSHKPSGLVMARKLIHLEIKPAIRNQIIRELQVLHECNSPYIVGFYGAFYSDGEISICMEHMVIKGLTYLREKHKIMHRDVKPSNILVNSRGEIKLCDFGVSGQLIDSMANSFVGTRSYMSPERLQGTHYSVQSDIWSMGLSLVEMAVGRYPIPPPDAKELELMFGCQVEGDAAETPPRPRTTPGRPLSSYGMDSRPPMAIFQLLDYIVNEPPPKLPSGVFSLEFQDFVNKCLIKNPAERADLKQLMVHAFIKRSDAEEVDFAGWLCSTIGLNQPSTPTHAAGV
Binder B1 has a Phosphorylation (Band-3 peptide) of under 0.005 nmol/min/mg, a Phosphorylation (Casein) of under 0.005 nmol/min/mg and a Phosphorylation (Denatured enolase) of under 0.005 nmol/min/mg. For the same binder, the Phosphorylation (ETE peptide) was under 0.005 nmol/min/mg, the Phosphorylation [1] was under 0.005 nmol/min/mg and the Phosphorylation (Histones) was 0.04 nmol/min/mg. It also gave a Phosphorylation (Kemptide) of under 0.005 nmol/min/mg, a Phosphorylation (Protamine) of 0.03 nmol/min/mg and a Phosphorylation (RR-SRC peptide) of 0.005 nmol/min/mg. The Phosphorylation (Raf-1) was under 0.01 nmol/min/mg, the Phosphorylation [2] was 60 nmol/min/mg and the Phosphorylation (Ribosomal S6 protein) was under 0.005 nmol/min/mg. The Phosphorylation (S6 peptide) was 0.07 nmol/min/mg, the Phosphorylation (Syntide-2) was 0.04 nmol/min/mg and the Phosphorylation (TEY peptide) was 0.005 nmol/min/mg. It also gave a Phosphorylation [3] of 0.12 nmol/min/mg and a Phosphorylation (poly (Glu^80 -Tyr^20)) of under 0.005 nmol/min/mg.

From patent US5663314
